The results in this text go back to US20130115681.

Residue numbers refer to the chain shown, from its start.

Common to all, as to assay: cleavage_in_vitro
Series [1] relates to T1, BspQI-HF K279P/R388F (Bacillus sphaericus).
T1 sequence: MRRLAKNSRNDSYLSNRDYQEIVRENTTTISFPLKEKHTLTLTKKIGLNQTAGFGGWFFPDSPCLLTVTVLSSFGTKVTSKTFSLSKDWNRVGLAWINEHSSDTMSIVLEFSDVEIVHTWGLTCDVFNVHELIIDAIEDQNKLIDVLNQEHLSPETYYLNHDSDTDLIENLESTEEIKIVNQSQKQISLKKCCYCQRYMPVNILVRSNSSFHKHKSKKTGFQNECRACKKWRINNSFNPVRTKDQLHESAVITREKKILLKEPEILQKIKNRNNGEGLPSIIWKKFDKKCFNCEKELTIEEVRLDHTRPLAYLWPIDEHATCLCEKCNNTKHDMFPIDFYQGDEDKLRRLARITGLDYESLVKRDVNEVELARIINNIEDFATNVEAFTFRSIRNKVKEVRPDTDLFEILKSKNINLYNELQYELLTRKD
The note with it: NEB4, 50 C.

Series [2] concerns the target T2, SalI-HF R107A (Streptomyces albus G) (UniProt Q53608).
T2 sequence: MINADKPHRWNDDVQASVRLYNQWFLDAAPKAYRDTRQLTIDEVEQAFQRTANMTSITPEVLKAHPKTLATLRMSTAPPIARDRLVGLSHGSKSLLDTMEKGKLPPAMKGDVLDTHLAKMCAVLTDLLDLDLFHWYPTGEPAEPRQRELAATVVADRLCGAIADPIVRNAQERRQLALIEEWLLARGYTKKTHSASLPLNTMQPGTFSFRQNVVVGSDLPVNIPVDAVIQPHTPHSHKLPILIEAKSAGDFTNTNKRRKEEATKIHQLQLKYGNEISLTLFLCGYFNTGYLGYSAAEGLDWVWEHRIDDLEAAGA
The note with it: NEB4, 37 C.

Series [3] addresses T3, SalI (Streptomyces albus G) (UniProt Q53608).
T3 sequence: T2 sequence with A107R
The note with it: NEB4, 37 C.

Series [4] deals with T4, SphI-HF K100A (Streptomyces phaeochromogenes).
T4 sequence: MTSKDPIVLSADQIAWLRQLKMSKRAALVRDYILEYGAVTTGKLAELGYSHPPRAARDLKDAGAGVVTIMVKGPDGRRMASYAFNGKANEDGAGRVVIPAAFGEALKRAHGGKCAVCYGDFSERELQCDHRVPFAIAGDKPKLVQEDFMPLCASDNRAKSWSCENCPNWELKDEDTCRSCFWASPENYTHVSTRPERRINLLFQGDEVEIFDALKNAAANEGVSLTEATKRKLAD
The note with it: NEB4, 37 C.

Series [5] concerns the target T5, ScaI-HF H193A/S201F (Streptomyces caespitosus) (UniProt O52691).
T5 sequence: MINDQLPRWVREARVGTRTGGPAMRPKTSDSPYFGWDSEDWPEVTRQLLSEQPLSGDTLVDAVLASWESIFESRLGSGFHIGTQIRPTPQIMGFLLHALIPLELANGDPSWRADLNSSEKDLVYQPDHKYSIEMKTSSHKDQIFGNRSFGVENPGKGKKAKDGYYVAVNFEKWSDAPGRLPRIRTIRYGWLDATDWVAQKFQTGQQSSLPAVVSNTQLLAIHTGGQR
The note with it: NEB4, 37 C.

Series [6] addresses T6, HindIII (Haemophilus influenzae Rd) (UniProt P43870).
T6 sequence: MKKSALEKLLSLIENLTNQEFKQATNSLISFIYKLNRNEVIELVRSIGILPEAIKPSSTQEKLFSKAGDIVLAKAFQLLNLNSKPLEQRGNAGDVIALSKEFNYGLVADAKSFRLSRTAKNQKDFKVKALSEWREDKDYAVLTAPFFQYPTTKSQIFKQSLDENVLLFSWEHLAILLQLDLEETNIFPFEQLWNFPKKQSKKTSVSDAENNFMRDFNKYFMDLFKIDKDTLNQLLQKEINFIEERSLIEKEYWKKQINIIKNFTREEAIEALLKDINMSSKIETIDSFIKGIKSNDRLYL
The note with it: NEB4, 37 C; FI 250 in NEB2.

Series [7] concerns T7, SbfI (Streptomyces species Bf-61?).
T7 sequence: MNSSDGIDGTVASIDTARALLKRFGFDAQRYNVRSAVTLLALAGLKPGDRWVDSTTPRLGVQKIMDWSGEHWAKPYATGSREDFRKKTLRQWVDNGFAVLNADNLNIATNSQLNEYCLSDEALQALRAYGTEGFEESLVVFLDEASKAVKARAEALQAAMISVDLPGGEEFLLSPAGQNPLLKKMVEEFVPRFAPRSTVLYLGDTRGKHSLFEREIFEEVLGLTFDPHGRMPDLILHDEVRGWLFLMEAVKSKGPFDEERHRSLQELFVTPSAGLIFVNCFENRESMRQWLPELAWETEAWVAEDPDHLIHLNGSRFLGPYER
The note with it: NEB4, 37 C.

The test system of series [8] is T8, NcoI-HF A2T/R31A (Nocardia corallina).
T8 sequence: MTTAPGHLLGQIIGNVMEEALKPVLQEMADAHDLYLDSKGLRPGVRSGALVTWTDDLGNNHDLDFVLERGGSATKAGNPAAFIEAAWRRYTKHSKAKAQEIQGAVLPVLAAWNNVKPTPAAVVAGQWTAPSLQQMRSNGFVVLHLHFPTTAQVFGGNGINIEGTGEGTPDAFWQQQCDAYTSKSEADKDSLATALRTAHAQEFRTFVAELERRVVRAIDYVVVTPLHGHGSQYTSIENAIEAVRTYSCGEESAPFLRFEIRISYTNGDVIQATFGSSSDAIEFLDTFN
The note with it: NEB4, 37 C.

Series [9] has as its target T9, PstI-HF D91A (Providencia stuartii 164) (UniProt P00640).
T9 sequence: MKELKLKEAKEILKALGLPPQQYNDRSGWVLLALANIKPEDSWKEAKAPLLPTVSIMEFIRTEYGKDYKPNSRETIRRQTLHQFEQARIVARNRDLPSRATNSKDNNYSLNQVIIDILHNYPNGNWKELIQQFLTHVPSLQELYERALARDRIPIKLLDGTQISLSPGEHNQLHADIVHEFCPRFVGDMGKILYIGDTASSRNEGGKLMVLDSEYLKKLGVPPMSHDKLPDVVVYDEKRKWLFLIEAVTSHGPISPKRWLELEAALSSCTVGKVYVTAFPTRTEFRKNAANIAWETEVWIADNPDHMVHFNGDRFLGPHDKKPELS
The note with it: NEB4, 37 C.

The subject of a further series is BstXI. The note with it: NEB4, 55 C.
The next series has as its system BsmBI-HF N185Y/R232A. The note with it: NEB4, 55 C.
The subject of another series is BstXI-HF N65A. The note with it: NEB4, 55 C.
For series [10], the system named is T10, SbfI-HF K251A (Streptomyces species Bf-61?).
T10 sequence: T7 sequence with K251A
The note with it: NEB4, 37 C.

For series [11], the target named is T11, BamHI-HF E163A/E167T (Bacillus amyloliquefaciens) (UniProt P23940).
T11 sequence: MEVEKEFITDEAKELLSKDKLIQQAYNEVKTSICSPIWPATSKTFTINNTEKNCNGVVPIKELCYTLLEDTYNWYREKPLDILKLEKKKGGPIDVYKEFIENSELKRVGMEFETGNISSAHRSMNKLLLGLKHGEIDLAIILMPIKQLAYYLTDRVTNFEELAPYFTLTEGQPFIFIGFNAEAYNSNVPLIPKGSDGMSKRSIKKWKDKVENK
The note with it: NEB4, 37 C.

With pUC19, the activity (fidelity index) in series [1] was determined as 4000.
With HindIII-digested lambda DNA, the activity (fidelity index) in series [2] is 32000; in [3], 1.
In the case of lambda phage DNA, the activity (fidelity index) amounted to 8000 in series [4]; 1000 in series [5]; 32 in series [6]; 8 in series [7]; 64000 in [8]; 4000 in series [9]. The activity (fidelity index) in the series on BstXI was 4; with BsmBI-HF N185Y/R232A, 500; in the series with BstXI-HF N65A, 250; in series [10] it was 250; in [11] it was 4000.
